T1: human CD19 on Raji cells (human, UniProt P15391 20-556)
T1 construct: whole, on cells
T1 sequence (looked up): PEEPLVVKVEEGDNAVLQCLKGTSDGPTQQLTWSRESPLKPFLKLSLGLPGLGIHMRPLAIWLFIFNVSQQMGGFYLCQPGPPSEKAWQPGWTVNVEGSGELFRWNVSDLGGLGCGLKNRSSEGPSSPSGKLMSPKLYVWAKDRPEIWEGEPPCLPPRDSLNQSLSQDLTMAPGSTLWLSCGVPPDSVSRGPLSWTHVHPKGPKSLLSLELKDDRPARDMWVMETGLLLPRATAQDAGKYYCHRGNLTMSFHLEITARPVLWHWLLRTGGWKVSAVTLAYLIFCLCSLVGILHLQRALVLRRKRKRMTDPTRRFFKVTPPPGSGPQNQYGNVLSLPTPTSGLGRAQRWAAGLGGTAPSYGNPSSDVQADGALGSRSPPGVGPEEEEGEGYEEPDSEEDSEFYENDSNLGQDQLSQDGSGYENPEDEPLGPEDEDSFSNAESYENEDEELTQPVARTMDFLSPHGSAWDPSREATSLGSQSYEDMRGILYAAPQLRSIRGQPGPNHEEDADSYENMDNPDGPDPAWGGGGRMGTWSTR

T2: cynomolgus monkey CD19 on peripheral blood B cells (cynomolgus monkey (Macaca fascicularis), UniProt A0A2K5W8L9 20-557)
T2 construct: whole, on cells; also called cynomolgus monkey B cells
T2 sequence: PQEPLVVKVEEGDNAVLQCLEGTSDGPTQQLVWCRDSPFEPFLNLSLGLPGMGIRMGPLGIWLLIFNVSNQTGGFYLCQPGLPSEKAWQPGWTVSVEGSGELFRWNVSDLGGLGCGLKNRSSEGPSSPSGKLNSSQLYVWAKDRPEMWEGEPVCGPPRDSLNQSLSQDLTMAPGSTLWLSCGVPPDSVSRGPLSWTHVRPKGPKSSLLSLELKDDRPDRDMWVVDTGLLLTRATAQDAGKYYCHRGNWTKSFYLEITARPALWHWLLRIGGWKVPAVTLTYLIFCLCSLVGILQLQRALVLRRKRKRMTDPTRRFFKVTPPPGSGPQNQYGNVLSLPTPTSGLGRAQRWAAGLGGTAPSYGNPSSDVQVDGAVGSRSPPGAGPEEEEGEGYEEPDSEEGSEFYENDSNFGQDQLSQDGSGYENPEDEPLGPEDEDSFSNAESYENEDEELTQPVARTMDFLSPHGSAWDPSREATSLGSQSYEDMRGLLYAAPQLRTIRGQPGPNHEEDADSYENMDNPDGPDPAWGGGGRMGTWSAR

T3: human CD19 on CHO-K1-human CD19 cells (human, UniProt P15391 20-556)
T3 construct: whole, on cells; also called CHO-K1-human CD19-2C8
T3 sequence (looked up): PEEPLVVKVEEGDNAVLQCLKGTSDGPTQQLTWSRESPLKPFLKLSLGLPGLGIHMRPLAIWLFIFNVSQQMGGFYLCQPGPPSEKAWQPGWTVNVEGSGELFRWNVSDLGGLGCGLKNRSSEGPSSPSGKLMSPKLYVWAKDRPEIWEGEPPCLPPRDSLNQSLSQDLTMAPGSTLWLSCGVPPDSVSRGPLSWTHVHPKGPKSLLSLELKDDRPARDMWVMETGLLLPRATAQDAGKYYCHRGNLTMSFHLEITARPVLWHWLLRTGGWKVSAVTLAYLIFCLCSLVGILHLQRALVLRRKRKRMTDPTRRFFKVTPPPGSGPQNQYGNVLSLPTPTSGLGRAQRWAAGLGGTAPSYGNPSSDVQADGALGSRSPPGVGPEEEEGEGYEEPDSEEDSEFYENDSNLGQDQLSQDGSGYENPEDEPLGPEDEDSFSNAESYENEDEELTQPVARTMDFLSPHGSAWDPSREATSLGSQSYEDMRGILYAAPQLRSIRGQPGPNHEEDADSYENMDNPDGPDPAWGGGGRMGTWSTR


How the values were obtained:
human CD19 on Raji cells = target: T1, human CD19 on Raji cells; assay: FACS on Raji cells
Source text: (§1) The desired cells were scale-up cultured in a T-75 cell culture flask to the logarithmic growth phase. For the adherent cell CHO-K1, the medium was aspirated, the cells were washed 2 times with a PBS buffer, and then digested with trypsin. After the digestion was terminated, the cells were washed 2 times with a PBS buffer; and for suspension cell Raji, the supernatant of the medium was discarded by directly centrifugation, and the cell pellet was washed 2 times with PBS. After counting the cells in the previous step, the cell pellet was resuspended with [PBS+2% (w/w) BSA] blocking solution to 2×10⁶ cells/ml, and added to a 96-well FACS reaction plate at 50 μl/well, and then the sample to be tested was added at 50 μl/well, and incubated on ice for 2 h. The obtained mixture was centrifuged and washed 3 times with a PBS buffer. […] The obtained mixture was centrifuged and washed 5 times with a PBS buffer, and FACS (FACS Canto™, purchased from BD Company) was used for detection and result analysis. Data analysis was performed by software (FlowJo) to obtain the mean fluorescence intensity (MFI) of the cells. And then software (GraphPad Prism8) was used for analysis, data fitting, and EC50 value calculation. […] The same method was used to detect the binding of the chimeric antibodies to endogenous CD19-negative cells, MoLT4 cells (purchased from ATCC, CRL-1582), and CHO-K1 cells.

[1] = target: T2, cynomolgus monkey CD19 on peripheral …; assay: FACS, cynomolgus PBMC, CD20+ B cells
Protocol: The monkey peripheral blood mononuclear cells were extracted from fresh cynomolgus monkey peripheral blood (purchased from Shanghai Medicilon Inc.) according to the instructions of Ficoll-Paque Plus (purchased from GE Healthcae, catalog number: 171440-02). After the cell suspension was centrifuged, the cells were resuspended in PBS containing 1% BSA, and then the cells were counted. […] The mixture was incubated for 1 h at room temperature. After washing the cells three times, APC-labeled secondary antibody anti-human IgG Fc (catalog number: 409306, purchased from Biolegend) was added. After incubation at room temperature in the dark for 30 minutes, the cells were washed 5 times, gently resuspended with PBS containing 1% BSA, and detected and analyzed by FACS (FACS Canto™, purchased from BD Company), in which CD20 was used as a marker of B cells to gate the CD20-positive B cell population, the proportion of the chimeric antibody-labeled positive cells was analyzed, and the proportion of the chimeric antibody positive cell population to B cell population was calculated after treatments with the chimeric antibodies at the concentrations of 100 nM, 10 nM and 1 nM, respectively.

[2] = target: T4, monkey CD19 on HEK293T-monkey CD19 cells (monkey); assay: FACS on HEK293T-monkey CD19 cells
T4 construct: whole, on cells
Protocol: as §1, with “After” for “The desired cells were scale-up cultured in a T-75 cell culture flask to the logarithmic growth phase. For the adherent cell CHO-K1, the medium was aspirated, the cells were washed 2 times with a PBS buffer, and then digested with trypsin. After”
HEK293T-monkey CD19 cells were subjected to FACS detection and data analysis according to the method in example 5.2. […] The same method was used to detect binding of the chimeric antibodies to HEK293T cells.

[3] = target: T3, human CD19 on CHO-K1-human CD19 cells; assay: FACS on CHO-K1-human CD19 cells
Source text: as §1

Row | EC50 (human CD19 on Raji cells) | Maximum mean fluorescence intensity (human CD19 on Raji cells) | Proportion of chimeric antibody positive cells to B cells (%) at 1 nM [1] | Proportion of chimeric antibody positive cells to B cells (%) at 10 nM [1] | Proportion of chimeric antibody positive cells to B cells (%) at 100 nM [1] | EC50 [2] | Maximum mean fluorescence intensity [2] | EC50 [3] | Maximum mean fluorescence intensity [3] | Binder
1 | 3.19 nM | 22400 | 2% | 7% | 12% | 20.7 nM | 26100 | 3.62 nM | 46900 | F5.3.6 (antibody, human IgG1, V domains shown, human-murine chimeric antibody, human IgG1) VH: DVQLQESGPGLVKPSQSQSLTCSVTGYSITSGYYWNWIRQFPGNKLEWMGYISYDGSNNYNPSLKNRISITRDTSKNQFFLKLNSVTTEDTVTYYCARAPLTGDRYWYFDVWGTGTTVTVSS VL: DIVLTQSPASLAVSLGQRATISCRASQSVSTSSYSYMHWYQQKPGQTPKLLIKYASNLKSGVPARFSGSGSGTDFTLNIHPVEEEDTATYYCQHSWEIPPTFGGGTKLEIK
2 | 5.25 nM | 43300 | 91% | 97% | 97% | 0.94 nM | 99100 | 0.84 nM | 63300 | F6.12.12 (antibody, human IgG1, V domains shown, human-murine chimeric antibody, human IgG1) VH: DVQLQESGPGLVKPSQSLSLTCSVTGYSITSGYYWIWIRQFPGNKLEWMGYISYDASNKYKPSLKNRISITRDTSKNQFFLKLNSVTAEDTATYFCAREDLRGYFDVWGTGTSVTVSS VL: DIVLTQSPASLAVSLGRRATISCRASQSVSTSGFSYMHWYQQKPGQPPNLLIKYASILQSGVPARFSGSGSGTDFILNIHPVEDVDTATYYCQHSWGIPFTFGSGTKLEIK
3 | 2.79 nM | 17600 | 93% | 98% | 98% | 2.82 nM | 81500 | 1.02 nM | 34000 | F5.2.9 (antibody, human IgG1, V domains shown, human-murine chimeric antibody, human IgG1) VH: QVTLKESGPGILQPSQTLSLTCSFSGFSLSTFGLGVGWVRQPSGKGLEWLAHIWWDDDKYYNPALKSRVTVSKETSKNQVFFKIANVDTADSATYYCARLSRGLRRDVVYAMDHWGQGTSVTVSS VL: DIQMTQTTSSLSASLGDRVTISCRASQDISNYLNWYQQKPDGSVKLLISYVSRLQSGVPSRFRGSGSGTDYSLTISNLDQEDIATYFCQQGIAFPYTFGGGTKLDIK
4 | 0.81 nM | 27600 | 1% | 2% | 9% | 3.86 nM | 40500 | 0.77 nM | 55300 | F4.272.13 (antibody, human IgG1, V domains shown, human-murine chimeric antibody, human IgG1) VH: QVQLKESGPGLVAPSQSLSITCTVSGFSLTDYGVSWIRQPPGKGLEWLGVIWGSETTFYNSALKSRLSISKDNSKSQLFLQMNSLQADDTAIYYCAKHHYYGGSFSMDYWGQGTSVTVSS VL: DIQMTQTTSSLSASLGDRVTISCRASQDINNYLNWYQQKPDGTVKFLIYYTSRLHSGVPSRFSGSGSGTDYSLTISDLEQEDIATYFCQQGNTLPYTFGGGTKLEIK
5 | 0.78 nM | 23500 | 2% | 1% | 2% | – | 597 | 1.05 nM | 50200 | F4.276.12 (antibody, human IgG1, V domains shown, human-murine chimeric antibody, human IgG1) VH: EIQLQQSGPELVKPGASVKVSCKASGYAFSAYNMYWVKQSHGKSLEWIGYIDPYNGGTNYNQKFKGKATLTVDKSSSTAYMHLNSLTSEDSAVYYCARDGYEVTYWGQGTLVTVSA VL: QIVLTQSPALMSASLGEEITLTCSASSSVTYMHWSQQKSGTSPRLLIYSTSNLASGVPSRFSGSGSGTFYSLTISSVEAEDAADYYCHQWSSYPWTFGGGTKLEIK
6 | 1.34 nM | 22100 | 61% | 97% | 99% | 4.98 nM | 99900 | 2.6 nM | 47700 | F5.10.6 (antibody, human IgG1, V domains shown, human-murine chimeric antibody, human IgG1) VH: DVQLQESGPGLVKPSQSLSLTCSVTDYSITSGYYWTWIRQFPGNKLEWMGYISYDGSTNYNPSLKNRFSITRDTSKNQFFLKLNSVIIEDTATYYCARDRMSTTWYFDVWGTGTTVTVSS VL: DIVLTQSPASLAVSLGQRATISCRASESVDNYGISFMHWYQQKPGQPPKLLIYRASKTESGIPARFSGSGSRTDFTLTINPVETDDVATYYCQQSNKYPRTFGGGTKVEIK
7 | 1.26 nM | 27300 | 5% | 13% | 18% | 5.7 nM | 43800 | 3.5 nM | 53600 | F5.8.6 (antibody, human IgG1, V domains shown, human-murine chimeric antibody, human IgG1) VH: QVQLHQPGAELVMPGASVTLSCKASGYTFTSYWMHWVKQRPGQGLEWIGEIDPSDSYTTYDQKFKGKATLTVDKFSSTAYMQFSSLTSEDSAVYYCARLTGNHLDYWGQGTTLTVSS VL: DIVMTQSHKFMSSSVGDRVSITCKASQDVSPAVAWYQQKPGQSPKLLIYSTSYRNTGVPDRFTGSGSGTDFTFTISSVQAEDLAVYYCQQHYSIPLTFGAGTKLELK

— US20250042994A1 (HAINAN SIMCERE ZAIMING PHARMACEUTICAL, published 2025)
